Measured values as given in article PMC10663500, “High-throughput analysis system of interaction kinetics for data-driven antibody design” (Scientific Reports, 2023).

Target: T1, human programmed cell death protein 1 (hPD-1) C93S (aa 24-167) (Homo sapiens, UniProt Q15116, C93S)
T1 construct: made as a fusion with a TEV site and human Fc; the Fc was cut off with TEV protease; source: Expi293F, purified (Protein A, TEV cleavage of Fc, SEC; monomer fractions); not shown: Fc (human), C-terminal, cleaved
T1 sequence (Q15116 24-167 C93S): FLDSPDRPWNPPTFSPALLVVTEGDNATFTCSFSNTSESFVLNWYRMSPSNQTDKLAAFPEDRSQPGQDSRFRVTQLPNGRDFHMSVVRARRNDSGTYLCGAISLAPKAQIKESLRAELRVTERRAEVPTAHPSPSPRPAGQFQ
Assay: SPR; Carterra LSA; Fab from the ammonium sulfate precipitate of the culture supernatant immobilised on a NiHC200M chip; hPD-1 (1-1024 nM) or mPD-1-Fc (4-1024 nM) as analyte, fourfold dilution series, no regeneration; HBS-EP pH 7.4, 25 °C; medians over the spots of a construct, KD = koff/kon
Settings: one partner purified
In short: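 Fabs, ammonium sulfate-precipitated from Brevibacillus supernatants and redissolved in HBS-EP, were captured in duplicate on a NiHC200M chip on a Carterra LSA at 25 °C. Fourfold series of human PD-1 (1–1024 nM) or mouse PD-1-Fc (4–1024 nM) were run without regeneration, with association for 10 min and dissociation for 5 min. Rates were fitted with the kdka model, choosing the better of slow- or fast-dissociation settings, and unconfirmed binders were given kon 10^3 […] and koff 10^−2 s^−1. The dissociation constant KD is koff/kon based on per-construct medians.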

Row | Binder | Kd | koff | kon
1 | toripalimab Fab, wild type (Fab, V domains shown, toripalimab Fab heavy chain; toripalimab stands in PDB 6JBT; toripalimab Fab light chain; also called WT; source: Brevibacillus, culture supernatant (ammonium sulfate precipitate); not shown: 6xHis, C-terminal, kept; 6xHN, C-terminal, kept) VH: QGQLVQSGAEVKKPGASVKVSCKASGYTFTDYEMHWVRQAPIHGLEWIGVIESETGGTAYNQKFKGRVTITADKSTSTAYMELSSLRSEDTAVYYCAREGITTVATTYYWYFDVWGQGTTVTVSS VL: DVVMTQSPLSLPVTLGQPASISCRSSQSIVHSNGNTYLEWYLQKPGQSPQLLIYKVSNRFSGVPDRFSGSGSGTDFTLKISRVEAEDVGVYYCFQGSHVPLTFGQGTKLEIK | < 0.841 nM | < 1e-05 s⁻¹ | 11900 M⁻¹ s⁻¹
2 | toripalimab Fab H.I101Y (Fab, V domains shown, heavy chain of Sm3 with this change; numbers count from the chain's first residue; as the light chain of Sm3; source: Brevibacillus, culture supernatant (ammonium sulfate precipitate); not shown: 6xHis, C-terminal, kept; 6xHN, C-terminal, kept) VH: QGQLVQSGAEVKKPGASVKVSCKASGYTFTDYEMHWVRQAPIHGLEWIGVIESETGGTAYNQKFKGRVTITADKSTSTAYMELSSLRSEDTAVYYCAREGYTTVATTYYWYFDVWGQGTTVTVSS VL: DVVMTQSPLSLPVTLGQPASISCRSSQSIVHSNGNTYLEWYLQKPGQSPQLLIYKVSNRFSGVPDRFSGSGSGTDFTLKISRVEAEDVGVYYCFQGSHVPLTFGQGTKLEIK | 54.5 nM | 0.000227 s⁻¹ | 4170 M⁻¹ s⁻¹
3 | toripalimab Fab H.T103A (Fab, V domains shown, heavy chain of Sm3 with this change; numbers count from the chain's first residue; as the light chain of Sm3; source: Brevibacillus, culture supernatant (ammonium sulfate precipitate); not shown: 6xHis, C-terminal, kept; 6xHN, C-terminal, kept) VH: QGQLVQSGAEVKKPGASVKVSCKASGYTFTDYEMHWVRQAPIHGLEWIGVIESETGGTAYNQKFKGRVTITADKSTSTAYMELSSLRSEDTAVYYCAREGITAVATTYYWYFDVWGQGTTVTVSS VL: DVVMTQSPLSLPVTLGQPASISCRSSQSIVHSNGNTYLEWYLQKPGQSPQLLIYKVSNRFSGVPDRFSGSGSGTDFTLKISRVEAEDVGVYYCFQGSHVPLTFGQGTKLEIK | < 1.2 nM | < 1e-05 s⁻¹ | 8350 M⁻¹ s⁻¹
4 | toripalimab Fab H.F112A (Fab, V domains shown, heavy chain of Sm3 with this change; numbers count from the chain's first residue; as the light chain of Sm3; source: Brevibacillus, culture supernatant (ammonium sulfate precipitate); not shown: 6xHis, C-terminal, kept; 6xHN, C-terminal, kept) VH: QGQLVQSGAEVKKPGASVKVSCKASGYTFTDYEMHWVRQAPIHGLEWIGVIESETGGTAYNQKFKGRVTITADKSTSTAYMELSSLRSEDTAVYYCAREGITTVATTYYWYADVWGQGTTVTVSS VL: DVVMTQSPLSLPVTLGQPASISCRSSQSIVHSNGNTYLEWYLQKPGQSPQLLIYKVSNRFSGVPDRFSGSGSGTDFTLKISRVEAEDVGVYYCFQGSHVPLTFGQGTKLEIK | 6.2 nM | 2.72e-05 s⁻¹ | 4390 M⁻¹ s⁻¹
5 | toripalimab Fab H.T102Y (Fab, V domains shown, heavy chain of Sm3 with this change; numbers count from the chain's first residue; as the light chain of Sm3; source: Brevibacillus, culture supernatant (ammonium sulfate precipitate); not shown: 6xHis, C-terminal, kept; 6xHN, C-terminal, kept) VH: QGQLVQSGAEVKKPGASVKVSCKASGYTFTDYEMHWVRQAPIHGLEWIGVIESETGGTAYNQKFKGRVTITADKSTSTAYMELSSLRSEDTAVYYCAREGIYTVATTYYWYFDVWGQGTTVTVSS VL: DVVMTQSPLSLPVTLGQPASISCRSSQSIVHSNGNTYLEWYLQKPGQSPQLLIYKVSNRFSGVPDRFSGSGSGTDFTLKISRVEAEDVGVYYCFQGSHVPLTFGQGTKLEIK | 200 nM | 0.00148 s⁻¹ | 7420 M⁻¹ s⁻¹
6 | toripalimab Fab H.D113Y (Fab, V domains shown, heavy chain of Sm3 with this change; numbers count from the chain's first residue; as the light chain of Sm3; source: Brevibacillus, culture supernatant (ammonium sulfate precipitate); not shown: 6xHis, C-terminal, kept; 6xHN, C-terminal, kept) VH: QGQLVQSGAEVKKPGASVKVSCKASGYTFTDYEMHWVRQAPIHGLEWIGVIESETGGTAYNQKFKGRVTITADKSTSTAYMELSSLRSEDTAVYYCAREGITTVATTYYWYFYVWGQGTTVTVSS VL: DVVMTQSPLSLPVTLGQPASISCRSSQSIVHSNGNTYLEWYLQKPGQSPQLLIYKVSNRFSGVPDRFSGSGSGTDFTLKISRVEAEDVGVYYCFQGSHVPLTFGQGTKLEIK | < 1.6 nM | < 1e-05 s⁻¹ | 6230 M⁻¹ s⁻¹
7 | toripalimab Fab H.G100Y (Fab, V domains shown, heavy chain of Sm3 with this change; numbers count from the chain's first residue; as the light chain of Sm3; source: Brevibacillus, culture supernatant (ammonium sulfate precipitate); not shown: 6xHis, C-terminal, kept; 6xHN, C-terminal, kept) VH: QGQLVQSGAEVKKPGASVKVSCKASGYTFTDYEMHWVRQAPIHGLEWIGVIESETGGTAYNQKFKGRVTITADKSTSTAYMELSSLRSEDTAVYYCAREYITTVATTYYWYFDVWGQGTTVTVSS VL: DVVMTQSPLSLPVTLGQPASISCRSSQSIVHSNGNTYLEWYLQKPGQSPQLLIYKVSNRFSGVPDRFSGSGSGTDFTLKISRVEAEDVGVYYCFQGSHVPLTFGQGTKLEIK | 107 nM | 0.00166 s⁻¹ | 15500 M⁻¹ s⁻¹
8 | toripalimab Fab H.Y111A (Fab, V domains shown, heavy chain of Sm3 with this change; numbers count from the chain's first residue; as the light chain of Sm3; source: Brevibacillus, culture supernatant (ammonium sulfate precipitate); not shown: 6xHis, C-terminal, kept; 6xHN, C-terminal, kept) VH: QGQLVQSGAEVKKPGASVKVSCKASGYTFTDYEMHWVRQAPIHGLEWIGVIESETGGTAYNQKFKGRVTITADKSTSTAYMELSSLRSEDTAVYYCAREGITTVATTYYWAFDVWGQGTTVTVSS VL: DVVMTQSPLSLPVTLGQPASISCRSSQSIVHSNGNTYLEWYLQKPGQSPQLLIYKVSNRFSGVPDRFSGSGSGTDFTLKISRVEAEDVGVYYCFQGSHVPLTFGQGTKLEIK | 1610 nM | 0.0601 s⁻¹ | 37200 M⁻¹ s⁻¹
9 | toripalimab Fab H.W110A (Fab, V domains shown, heavy chain of Sm3 with this change; numbers count from the chain's first residue; as the light chain of Sm3; source: Brevibacillus, culture supernatant (ammonium sulfate precipitate); not shown: 6xHis, C-terminal, kept; 6xHN, C-terminal, kept) VH: QGQLVQSGAEVKKPGASVKVSCKASGYTFTDYEMHWVRQAPIHGLEWIGVIESETGGTAYNQKFKGRVTITADKSTSTAYMELSSLRSEDTAVYYCAREGITTVATTYYAYFDVWGQGTTVTVSS VL: DVVMTQSPLSLPVTLGQPASISCRSSQSIVHSNGNTYLEWYLQKPGQSPQLLIYKVSNRFSGVPDRFSGSGSGTDFTLKISRVEAEDVGVYYCFQGSHVPLTFGQGTKLEIK | < 2.43 nM | < 1e-05 s⁻¹ | 4120 M⁻¹ s⁻¹
